Reference: patent US20240116985A1 (published 2024)
Starred links: 1 amine or outer side, 2 acyl side, 3 side chain; linkers in the order of their positions; H or OH if unused. Positions of bridges follow the written chain, without caps; N, C: chain ends. Non-standard residues stand in square brackets, D forms with d. Primed or numbered codes have the meaning given here. PyrS2″ = (S)-3-amino-1-((pent-4-en-1-yloxy)carbonyl)pyrrolidine-3-carboxylic acid (stapling residue), C=CCCCOC(=O)N1CC[C@@](N[*:1])(C(=O)[*:2])C1; B5(4) = 2,2-bis(4-pentenyl)glycine = 2-amino-2-(pent-4-en-1-yl)hept-6-enoic acid (stitching residue), C=CCCCC(CCCC=C)(N[*:1])C(=O)[*:2]; TfeGA = (S)-2-amino-3-((carboxymethyl)(2,2,2-trifluoroethyl)amino)propanoic acid, O=C([C@H](CN(CC(=O)[*:3])CC(F)(F)F)N[*:1])[*:2]; B5(9) = 2-amino-2-(pent-4-en-1-yl)hept-6-enoic acid (2,2-bis(4-pentenyl)glycine), C=CCCCC(CCCC=C)(N[*:1])C(=O)[*:2]; Me2Asn = listed as N4-methyl-L-asparagine, CNC(=O)C[C@H](N[*:1])C(=O)[*:2]; Phe(3-COOH) = N[C@@H](Cc1cccc(C(=O)O)c1)C(=O)O; d(βAsp) = O=C(O)[C@@H](CC(=O)[*:2])N[*:1]; Bta = N[C@@H](Cc1csc2ccccc12)C(=O)O; αAllylPro = C=CC[C@@]1(C(=O)O)CCCN1; tBuAla = CC(C)(C)C[C@H](N)C(=O)O; 3Thi = N[C@@H](Cc1ccsc1)C(=O)O; S8 = C=CCCCCCC[C@](C)(N)C(=O)O; BnBoroleK = not defined here; PyrS2(4) = not defined here; TfeGA″ = not defined here; 34ClF = not defined here; Nle = CCCC[C@H](N)C(=O)O; Aib = CC(C)(N)C(=O)O

T1: B-cat-Halo (beta-catenin HaloTag construct expressed in HEK293 cells) (UniProt P35222 1-781)
T1 sequence (looked up): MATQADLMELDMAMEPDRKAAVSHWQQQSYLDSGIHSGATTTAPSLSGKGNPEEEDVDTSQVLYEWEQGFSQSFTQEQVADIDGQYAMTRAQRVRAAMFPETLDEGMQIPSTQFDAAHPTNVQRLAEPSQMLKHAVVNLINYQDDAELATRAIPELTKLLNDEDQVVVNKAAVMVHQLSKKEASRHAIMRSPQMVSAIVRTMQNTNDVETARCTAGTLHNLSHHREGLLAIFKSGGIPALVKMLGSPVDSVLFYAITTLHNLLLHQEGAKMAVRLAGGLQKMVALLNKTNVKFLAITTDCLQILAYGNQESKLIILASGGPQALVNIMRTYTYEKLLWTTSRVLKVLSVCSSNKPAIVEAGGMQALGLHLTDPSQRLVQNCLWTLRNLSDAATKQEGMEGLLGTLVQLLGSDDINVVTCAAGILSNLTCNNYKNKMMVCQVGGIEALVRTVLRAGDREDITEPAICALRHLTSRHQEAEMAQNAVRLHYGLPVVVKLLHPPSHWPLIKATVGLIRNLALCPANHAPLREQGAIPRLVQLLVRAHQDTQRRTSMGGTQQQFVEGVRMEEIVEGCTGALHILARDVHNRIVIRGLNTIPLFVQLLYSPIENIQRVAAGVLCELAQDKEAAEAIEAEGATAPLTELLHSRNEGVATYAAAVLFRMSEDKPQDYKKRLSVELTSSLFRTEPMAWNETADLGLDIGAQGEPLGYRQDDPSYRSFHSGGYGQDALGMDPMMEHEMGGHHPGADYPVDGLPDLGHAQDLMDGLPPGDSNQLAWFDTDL

T2: full-length beta-Catenin (Uniprot ID P35222) (Homo sapiens (Human), UniProt P35222 1-781)
T2 construct: also called bCat; B-Catenin
T2 sequence: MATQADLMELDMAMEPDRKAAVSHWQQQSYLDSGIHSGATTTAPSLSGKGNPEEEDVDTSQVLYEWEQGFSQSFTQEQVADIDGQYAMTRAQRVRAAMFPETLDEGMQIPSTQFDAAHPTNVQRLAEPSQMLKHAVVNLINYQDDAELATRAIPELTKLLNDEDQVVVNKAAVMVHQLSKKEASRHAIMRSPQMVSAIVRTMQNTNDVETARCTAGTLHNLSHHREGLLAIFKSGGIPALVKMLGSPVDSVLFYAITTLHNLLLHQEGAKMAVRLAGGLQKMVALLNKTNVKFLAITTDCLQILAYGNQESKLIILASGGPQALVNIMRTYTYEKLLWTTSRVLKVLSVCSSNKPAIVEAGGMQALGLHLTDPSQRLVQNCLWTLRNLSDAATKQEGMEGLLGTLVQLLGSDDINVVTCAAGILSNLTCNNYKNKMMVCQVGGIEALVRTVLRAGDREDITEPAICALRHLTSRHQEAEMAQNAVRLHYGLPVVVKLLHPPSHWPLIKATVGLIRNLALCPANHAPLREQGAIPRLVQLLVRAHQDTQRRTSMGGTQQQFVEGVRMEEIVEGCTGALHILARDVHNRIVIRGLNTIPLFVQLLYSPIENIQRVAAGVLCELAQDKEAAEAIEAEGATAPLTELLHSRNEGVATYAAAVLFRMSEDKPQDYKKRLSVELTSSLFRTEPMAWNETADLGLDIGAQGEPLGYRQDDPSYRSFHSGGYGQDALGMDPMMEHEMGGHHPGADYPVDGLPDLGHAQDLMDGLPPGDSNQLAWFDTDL


target: T1, B-cat-Halo (beta-catenin HaloTag …); test: cell-based or functional assay

| NanoBRET Abs IC50 [µM] | Binder |
| --- | --- |
| 39.9 | Ac-[αAllylPro]D[tBuAla][B5(4)]D[Phe(3-COOH)][Nle]AFL[PyrS2″][3Thi][Bta][tBuAla]-NH2 (staple 1-4, 4-11) [I-2193] |
| 8.8 | Ac-[αAllylPro]D[tBuAla][B5(4)]D[Phe(3-COOH)][Aib]AFL[PyrS2″][3Thi][Bta][tBuAla]-NH2 (staple 1-4, 4-11) [I-2194] |
| 39.3 | Ac-[αAllylPro]D[tBuAla][B5(4)]D[Phe(3-COOH)][Me2Asn]AFL[PyrS2″][3Thi][Bta][tBuAla]-NH2 (staple 1-4, 4-11) [I-2196] |
| 16.1 | Ac-[αAllylPro]D[tBuAla][B5(4)]D[Phe(3-COOH)]QAFL[PyrS2″][3Thi][Bta][tBuAla]-NH2 (staple 1-4, 4-11) [I-2192] |
| 21 | Ac-[αAllylPro]D[tBuAla][B5(4)]D[Phe(3-COOH)]SAFL[PyrS2″][3Thi][Bta][tBuAla]-NH2 (staple 1-4, 4-11) [I-2195] |

Further lines, the binder ahead of its results:

| Binder | NanoBRET Abs IC50 [µM] |
| --- | --- |
| Ac-[αAllylPro]D[tBuAla][B5(4)]DDAAFL[PyrS2″][3Thi][34ClF]Q-NH2 (staple 1-4, 4-11; reading uncertain; also: printed as Ac-PL3-Asp-Npg-B5-Asp-Asp-Ala-Ala-Phe-Leu-PyrS2-3Thi-34C1F-Gln-NH2) [I-2183] | 5 |
| Ac-[αAllylPro]D[tBuAla][B5(4)]D[Phe(3-COOH)][Me2Asn]AFL[PyrS2″][3Thi][Bta]V-NH2 (staple 1-4, 4-11) [I-2191] | 29.5 |
| Ac-[αAllylPro]D[tBuAla][B5(4)]D[Phe(3-COOH)][Nle]AFL[PyrS2″][3Thi][Bta]V-NH2 (staple 1-4, 4-11) [I-2189] | 33.4 |
| Ac-[αAllylPro]D[tBuAla][B5(4)]D[Phe(3-COOH)]SAFL[PyrS2(4)][3Thi][Bta]V-NH2 (staple 1-4, 4-11; reading uncertain; also: printed as Ac-PL3-Asp-Npg-B5-Asp-3COOHF-Ser-Ala-Phe-Leu-PyrS2-3Thi-BztA-Val-NH2) [I-2190] | 33.4 |
| Ac-[αAllylPro]D[tBuAla][B5(4)]D[TfeGA″]AAFL[PyrS2(4)][3Thi][Bta][BnBoroleK]-NH2 (staple 1-4, 4-11; reading uncertain; also: later-eluting HPLC isomer peak) [I-2187] | 10.8 |
| Ac-[αAllylPro]D[tBuAla][B5(4)]DDAAFN[PyrS2″][3Thi][34ClF]Q-NH2 (staple 1-4, 4-11; reading uncertain; also: printed as Ac-PL3-Asp-Npg-B5-Asp-Asp-Ala-Ala-Phe-Asn-PyrS2-3Thi-34C1F-Gln-NH2) [I-2182] | 11.1 |
| Ac-[αAllylPro]D[tBuAla][B5(4)]D[Phe(3-COOH)][Me2Asn]AFL[PyrS2(4)][3Thi][Bta]A-NH2 (staple 1-4, 4-11; reading uncertain; also: printed as Ac-PL3-Asp-Npg-B5-Asp-3COOHF-Me2Asn-Ala-Phe-Leu-PyrS2-3Thi-BztA-Ala-NH2) [I-2188] | 7.6 |
| Ac-[αAllylPro]D[tBuAla][B5(4)]D[TfeGA]AAFL[PyrS2″][3Thi][Bta]Q-NH2 (staple 1-4, 4-11; not fully specified (residue 9); also: later-eluting HPLC isomer peak) [I-2185] | 6.1 |

target: T2, full-length beta-Catenin (Uniprot ID …); test: fluorescence polarization competition; full-length beta-catenin, competitor 5FAM-TCF4(10-53) probe
How it was run: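 Incubate 60 minutes at 20° C. away from light, then read polarization in duplicate. Fit to 1:1 binding with hill slope.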

| Binder | IC50 [µM] |
| --- | --- |
| Ac-[αAllylPro][d(βAsp)]I[B5(9)]DEAAFQ[S8]F[Bta]Q-NH2 (staple 1-4, 4-11, Stapled peptide) [I-669] | 0.451 |
| Ac-[αAllylPro][d(βAsp)]I[B5(9)]DEAAFQ[S8]F[Bta]Q-NH2 (staple 1-4, 4-11, Stapled peptide) [I-668] | 0.675 |
